Laboratory results taken from patent US20260209265A1 (NAVIGO PROTEINS, published 2026).

Experiments:
Octagam (IgG sample) [1] = target: T1, Octagam (IgG sample); test: step pH elution with 0.1 M acetic acid of hIgG (Octagam) bound to the immobilized ligand; percent of the bound IgG released at pH 4.0
T1 construct: also called hIgG

Panitumab (IgG2) = target: T2, Panitumab (IgG2); test: SPR (Bruker SPR-32, 25 C, Langmuir 1:1 model)
T2 construct: also called hIgG2
Excerpt: (§1) A sensor chip (Bruker) was equilibrated with surface plasmon resonance (SPR) running buffer. Surface-exposed carboxylic groups were activated by passing a mixture of EDC and NHS to yield reactive ester groups. 700-1500 RU on-ligand were immobilized on a flow cell, off-ligand was immobilized on another flow cell. Injection of ethanolamine after ligand immobilization removes non-covalently bound Ig binding protein. Upon ligand binding, protein analyte was accumulated on the surface increasing the refractive index. This change in the refractive index was measured in real time and plotted as response or resonance units (RU) versus time. The analytes were applied to the chip in serial dilutions with a suitable flow rate (pl/min). After each run, the chip surface was regenerated with regeneration buffer and equilibrated with running buffer. The control samples were applied to the matrix. Regeneration and re-equilibration were performed as previously mentioned. Binding studies were carried out by the use of the Bruker SPR-32 at 25° C.; data evaluation was operated via the Bruker evaluation software, provided by the manufacturer, by the use of the Langmuir 1:1 model (RI=0).

Natalizumab (IgG4) = test: SPR (Bruker SPR-32, 25 C, Langmuir 1:1 model)
Excerpt: as §1

Octagam (IgG sample) [2] = target: T1, Octagam (IgG sample); test: step pH elution with 0.1 M acetic acid of hIgG (Octagam) bound to the immobilized ligand; percent of the bound IgG released at pH 3.7
Octagam (IgG sample) [3] = target: T1, Octagam (IgG sample); test: DBC10 of the immobilized ligand after 50 h in 1 M NaOH, in % of the DBC10 at 0 h; Octagam loaded, 6 min residence time
Octagam (IgG sample) [4] = target: T1, Octagam (IgG sample); test: dynamic binding capacity at 10% breakthrough; ligand coupled to agarose beads, Octagam 2.2 mg/ml loaded

Natalizumab (IgG4), sequence (VH, as listed by the source, chain 1 of 2): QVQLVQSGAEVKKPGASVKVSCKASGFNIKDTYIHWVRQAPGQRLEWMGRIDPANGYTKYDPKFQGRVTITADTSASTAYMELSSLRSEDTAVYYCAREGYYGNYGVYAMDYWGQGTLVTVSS
Natalizumab (IgG4), sequence (VL, as listed by the source, chain 2 of 2): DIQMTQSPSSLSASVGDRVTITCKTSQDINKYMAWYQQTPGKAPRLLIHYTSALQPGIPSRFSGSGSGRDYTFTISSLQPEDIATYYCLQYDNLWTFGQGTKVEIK

B1: 224777 (SEQ ID NO: 7) (designed binder)
chain: AQFDKIAQIAFYAILHLPNLTEEQRHAFIQSLRDDPSVSKEILAEAKKLNDAQAPKIAAQFDKIAQIAFYAILHLPNLTEEQRHAFIQSLRDDPSVSKEILAEAKKLNDAQAPKIAAQFDKIAQIAFYAILHLPNLTEEQRHAFIQSLRDDPSVSKEILAEAKKLNDAQAPKIAAQFDKIAQIAFYAILHLPNLTEEQRHAFIQSLRDDPSVSKEILAEAKKLNDAQAPKIAAQFDKIAQIAFYAILHLPNLTEEQRHAFIQSLRDDPSVSKEILAEAKKLNDAQAPK
notes: also called 224777 pentamer
Which “Amount eluted IgG pH 4.0 (%)” value (Octagam (IgG sample) [1]) does the source give for B1 here?
The value was 100%.

And the Kd (Panitumab (IgG2))?
Its Kd is 5.8 nM.

What about the Kd (Natalizumab (IgG4)) of the same binder?
Its Kd is 2 nM.

What about the “Amount eluted IgG pH 3.7 (%)” value (Octagam (IgG sample) [2]) of the same binder?
Its value is 0%.

And the “Remaining IgG binding capacity after 50 h, 1 M NaOH (%)” value (Octagam (IgG sample) [3])?
Its value is 76%.

And the “DBC10% 6 min residence time” value (Octagam (IgG sample) [4])?
Its value is 61 mg/mL.
